From patent publication US20070269898A1, “Amino Acid Sequences Essential to Neuron Specific Gene Expression” (YOKOHAMA CITY UNIVERSITY, priority 2004, published 2007) come the findings set out here.

One series is described as follows: Solubility of peptide. The format is physicochemical. Particulars: before adding KKKK to the C-terminus.
In the next series the target is T1, mSin3B PAH1 domain (Mus musculus, UniProt Q62141).
T1 construct: Gly-Ser-His-Met (vector-derived N-terminal residues; general statement only, not tied to the sample used) (N); made in house
T1 sequence (Q62141 28-107): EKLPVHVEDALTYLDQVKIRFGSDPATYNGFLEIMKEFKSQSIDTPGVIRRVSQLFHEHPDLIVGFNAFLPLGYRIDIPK
The series is described as follows: 1H-15N HSQC interaction / titration experiment with 15N-labeled mSin3B PAH1 domain. It is filed as binding. Particulars: for Spectrum (1H-15N HSQC of 15N-mSin3B PAH1 after adding the peptide: complex or single peptide): peptide added to aqueous solution of 15N-labeled mSin3B PAH1. Here is the method:
Interaction candidate regions of NRSF/REST (a.a. 43-83, 39-55, 38-57, 64-80 and 68-83) were individually added to an aqueous solution of ^15N-labeled mSin3B PAH1 for measuring ^1H—^15N HSQC to thereby determine a region necessary for the interaction. In order to examine binding ratios, NRSF/REST (a.a. 42-56) at varied concentrations was added to ^15N-labeled mSin3B PAH1 domain in phosphate buffer (pH 6.6), followed by observation of signal changes by ^1H—^15N HSQC. […] Further, in order to carry out quantitative determination of concentrations with UV, a residue having an aromatic ring (W) was also added to the peptide. In a similar manner, the interaction between ^15N-labeled mSin3B PAH1 domain and N—CoR (a.a. 1829-1847) was observed by ^1H-^15N HSQC. For all of the NMR measurement, Bruker Advance 700 was used.
^1H—^15N HSQC spectra were measured when NRSF/REST (a.a. 42-56) was added to 0.1 mM ^15N-labeled mSin3B PAH1 domain at a molar ratio of 1:0, 1:0.5, 1:1 or 1:2. As the concentration of NRSF/REST increased, signals from the single peptide mSin3B disappeared and new signals derived from the mSin3B in complex began to appear. […] No difference was recognized between mSin3B PAH1:NRSF/REST ratios of 1:1 and 1:2. Therefore, it was shown that mSin3B PAH1 domain and NRSF/REST form a complex with 1:1.
^1H—^15N HSQC spectra were measured when N—CoR was added to 0.1 mM ^15N-labeled mSin3B PAH1 domain at a molar ratio of 1:0, 1:0.2, 1:0.4, 1:0.6, 1:0.8, 1:1, 1:2 or 1:3. The positions of signals shifted in a N—CoR concentration dependent manner.

Series [1] concerns the target T2, PAH1 domain of mSin3B (a.a. 28-107) (mouse, UniProt O75182 35-114 (human entry)).
T2 construct: Expressed in E. coli from pET-28a (NdeI-BamHI) and the His-tag was cut off with thrombin; Used 15N-labeled (or 13C/15N-labeled) in NMR; Stated molecular weight 9585; also called mSin3B PAH1 domain; mSin3B PAH1
T2 sequence: T1 sequence (Q62141 28-107)
In words: 1H-15N HSQC NMR, peptide added to 15N-labeled mSin3B PAH1 domain. The method, then: (§1) Interaction candidate regions of NRSF/REST (a.a. 43-83, 39-55, 38-57, 64-80 and 68-83) were individually added to an aqueous solution of ¹⁵N-labeled mSin3B PAH1 for measuring ¹H—¹⁵N HSQC to thereby determine a region necessary for the interaction. In order to examine binding ratios, NRSF/REST (a.a. 42-56) at varied concentrations was added to ¹⁵N-labeled mSin3B PAH1 domain in phosphate buffer (pH 6.6), followed by observation of signal changes by ¹H—¹⁵N HSQC. Since NRSF/REST (a.a. 42-56) is sparingly soluble, basic residues (KKKK) were added to its C-terminus to improve the solubility. Further, in order to carry out quantitative determination of concentrations with UV, a residue having an aromatic ring (W) was also added to the peptide. […] For all of the NMR measurement, Bruker Advance 700 was used.

The target of series [2] is T2, PAH1 domain of mSin3B (a.a. 28-107). In words: 1H-15N HSQC titration, 0.1 mM 15N-labeled mSin3B PAH1 at molar ratios 1:0 to 1:3. The method, then: as §1
¹H—¹⁵N HSQC spectra were measured when N—CoR was added to 0.1 mM ¹⁵N-labeled mSin3B PAH1 domain at a molar ratio of 1:0, 1:0.2, 1:0.4, 1:0.6, 1:0.8, 1:1, 1:2 or 1:3. The positions of signals shifted in a N—CoR concentration dependent manner. A rapid exchange process on the NMR timescale was shown.

Where no end group is shown, it is not given here.

Regarding AAPQLIMLANVALTGKKKKW [NRSF/REST 42-56], in “Solubility of peptide”, the solubility result is listed as “sparingly soluble”. Take “AELAAPQLIMLANVALT (listed as Homo sapiens) [NRSF/REST 39-55, synthetic peptide of NRSF/REST residues 39-55]”: in the series with mSin3B PAH1 domain, the “Spectrum (1H-15N HSQC of 15N-mSin3B PAH1 after adding the peptide: complex or single peptide)” value (“Spectrum” for short) was “Complex”. Take “APQLIMLANVALTGEVNGSCCDYLVGEERQMAELMPVGDNN (listed as Homo sapiens) [NRSF/REST 43-83, NRSF/REST residues 43-83, expressed as GST fusion in E. coli and cut with thrombin]”: the “Spectrum” value with mSin3B PAH1 domain is “Complex”. Turning to “DYLVGEERQMAELMPVG (listed as Homo sapiens) [NRSF/REST 64-80, synthetic peptide of NRSF/REST residues 64-80]”, the “Spectrum” value with mSin3B PAH1 domain was “Single”. As to “GEERQMAELMPVGDNN (listed as Homo sapiens) [NRSF/REST 68-83, synthetic peptide of NRSF/REST residues 68-83]”, in the series with mSin3B PAH1 domain, the “Spectrum” value is recorded as “Single”. The same measure, in the same setting: the result for “KAELAAPQLIMLANVALTGE (listed as Homo sapiens) [NRSF/REST 38-57, synthetic peptide of NRSF/REST residues 38-57]” reads “Complex”. “N—CoR (a.a. 1829-1847): synthetic peptide of residues 1829-1847 of transcriptional co-repressor N—CoR (RYNTAADALAALVDAAASA; listed as Homo sapiens)”: in the series with mSin3B PAH1 domain (1H-15N HSQC), the “interaction with the PAH1 domain relative to NRSF/REST” value was “interacts with the PAH1 domain, though more weakly than NRSF/REST”. For the same molecule, the “exchange process on the NMR timescale” value in the series with mSin3B PAH1 domain (titration into 0.1 mM 15N-labeled mSin3B PAH1 domain, 1H-15N HSQC) is given as “rapid exchange process”.

B1: NRSF/REST (a.a. 68-83) (peptide)
peptide: GEERQMAELMPVGDNN
notes: Synthetic peptide, molecular weight 1790
Consider B1, for which the binding result in series [1] is “no binding”.

B2: NRSF/REST (a.a. 64-80) (peptide)
peptide: DYLVGEERQMAELMPVG
notes: Synthetic peptide, molecular weight 1937
As to B2, the binding result in series [1] is listed as “no binding”.

B3: NRSF/REST (a.a. 39-55) (peptide)
peptide: AELAAPQLIMLANVALT
notes: Synthetic peptide, molecular weight 1739; also called NRSF/REST39-55
For B3, the binding result in series [1] is recorded as “binds”.

B4: NRSF/REST (a.a. 38-57) (peptide)
peptide: KAELAAPQLIMLANVALTGE
notes: Synthetic peptide, molecular weight 2053; Used for NMR structure analysis of the complex; also called NRSF/REST38-57
In the case of B4, the binding result in series [1] is reported as “binds”.

B5: N-CoR (a.a. 1829-1847) (peptide)
peptide: RYNTAADALAALVDAAASA
notes: Synthetic peptide, molecular weight 1835; also called co-repressor N-CoR
B5: the binding result in series [2] is reported as “binds”.

B6: NRSF/REST (a.a. 42-56) to which KKKK and W are added to its C-terminus (peptide)
peptide: AAPQLIMLANVALTGKKKKW
notes: Synthetic peptide, molecular weight 2182; also called NRSF/REST42-56
In the case of B6, the binding result in series [1] is reported as “binds”.

B7: NRSF/REST (a.a. 43-83) (peptide)
peptide: APQLIMLANVALTGEVNGSCCDYLVGEERQMAELMPVGDNN
notes: Recombinant, made as a GST fusion (pGEX-2T, BamHI-EcoRI) and GST was cut off with thrombin; Stated molecular weight 4511; also called NRSF/REST43-83
As for B7, in series [1], the binding result was “binds”.
